Data taken from patent CN111171150A (BEIJING ZHIREN MEIBO BIOTECHNOLOGY CO LTD, dated 2020).
Numbering of substitutions follows the chain as printed.

T1: mTSLP-mFc (mouse (mus musculus))
T1 construct: also called 小鼠TSLP
T1 chain: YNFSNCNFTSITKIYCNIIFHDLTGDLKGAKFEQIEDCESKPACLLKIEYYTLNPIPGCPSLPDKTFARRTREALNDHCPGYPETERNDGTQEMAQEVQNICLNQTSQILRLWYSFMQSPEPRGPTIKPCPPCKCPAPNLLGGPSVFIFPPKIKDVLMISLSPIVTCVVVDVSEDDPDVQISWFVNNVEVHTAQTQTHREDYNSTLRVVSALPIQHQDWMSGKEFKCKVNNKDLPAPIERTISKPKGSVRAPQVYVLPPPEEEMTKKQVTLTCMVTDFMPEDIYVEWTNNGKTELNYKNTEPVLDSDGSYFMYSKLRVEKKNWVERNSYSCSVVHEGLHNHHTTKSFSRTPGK

T2: hTSLP1-m-mFc (human (homo sapiens)); mouse (mus …, limits assumed)
T2 construct: also called 人TSLP
T2 chain: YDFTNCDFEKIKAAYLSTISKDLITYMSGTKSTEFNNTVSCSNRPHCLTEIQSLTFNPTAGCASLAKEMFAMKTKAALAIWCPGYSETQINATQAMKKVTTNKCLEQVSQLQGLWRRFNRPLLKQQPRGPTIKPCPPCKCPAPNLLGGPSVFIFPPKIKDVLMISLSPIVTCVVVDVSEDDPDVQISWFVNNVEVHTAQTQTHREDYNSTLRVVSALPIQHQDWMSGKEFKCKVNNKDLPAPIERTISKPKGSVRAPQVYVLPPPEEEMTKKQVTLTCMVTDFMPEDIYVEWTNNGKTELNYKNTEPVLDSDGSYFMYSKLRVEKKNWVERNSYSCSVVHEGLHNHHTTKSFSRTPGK

T3: mfTSLP1-m-mFc (cynomolgus monkey (Macaca …))
T3 construct: also called 食蟹猴TSLP
T3 chain: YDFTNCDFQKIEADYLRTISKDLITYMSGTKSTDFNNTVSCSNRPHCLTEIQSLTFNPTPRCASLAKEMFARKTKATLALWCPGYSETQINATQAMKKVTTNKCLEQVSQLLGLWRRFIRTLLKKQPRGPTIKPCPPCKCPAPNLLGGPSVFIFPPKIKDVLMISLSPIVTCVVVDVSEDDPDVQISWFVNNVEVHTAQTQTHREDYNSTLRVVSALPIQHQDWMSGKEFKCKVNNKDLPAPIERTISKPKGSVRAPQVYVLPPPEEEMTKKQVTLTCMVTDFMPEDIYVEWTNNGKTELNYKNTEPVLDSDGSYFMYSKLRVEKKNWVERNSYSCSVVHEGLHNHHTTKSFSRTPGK

T4: mfTSLP (cynomolgus monkey (Macaca fascicularis))
T4 construct: also called 猴TSLP; 食蟹猴TSLP
T4 chain: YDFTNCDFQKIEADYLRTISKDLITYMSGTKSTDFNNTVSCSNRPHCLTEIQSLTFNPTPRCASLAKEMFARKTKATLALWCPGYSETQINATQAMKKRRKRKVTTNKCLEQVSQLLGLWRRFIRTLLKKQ

B1: H1A10+L3E8-M1 (antibody, human IgG4, V domains shown)
VH: QVQLVQSGAEVKKPGASVKVSCKASGYAFSNYWMNWVRQAPGQGLEWMGQIFPGDSDTDYDQKFQGRVTMTRDTSTSTVYMELSSLRSEDTAVYYCARAGYYRGYYAMDYWGQGTTVTVSS
VL: EIVMTQSPATLSVSPGERATLSCSVSSSISSSNLHWYQQKPGQAPRPWIYGTSNLASGIPARFSGSGSGTEFTLTISSLQSEDFAVYYCQQWSSYPLTFGQGTKLEIK
notes: also called L3E8人源化突变体; 人源化抗TSLP单克隆抗体
B2: H1A10+L3E8 (antibody, V domains shown)
VH: B1 VH
VL: B1 VL with L21I, S22T, R46K, T73S, L79V, Q80E, S81A, F84A
B3: H1A10+L3E8-M2 (antibody, IgG4, V domains shown)
VH: B1 VH
VL: B1 VL with R46K
notes: also called L3E8人源化突变体
B4: H1A10+L3E8-M4 (antibody, IgG4, V domains shown)
VH: B1 VH
VL: B1 VL with L79M, Q80E, S81A
notes: also called L3E8人源化突变体
B5: H1A10+L3E8-M3 (antibody, IgG4, V domains shown)
VH: B1 VH
VL: B1 VL with L21I, S22T
notes: also called L3E8人源化突变体
B6: S2B1-IgG4 (antibody, V domains shown)
VH: EVKLQQSGAELVRPGSSVKISCKASGYAFSNYWMNWVKQRPGQGLEWIGQIFPGDGDTDYNGKFKGKATLTADKSSSTAYMQLSSLTSEDSAVYFCARAGYYRGYYAMDYWGQGTSVTVSA
VL: EIVLTQSPALMAASPGEKVTITCSVSSSISSSNLHWYQQKSETSPKPWIYGTSNLASGVPVRFSGSGSGTSYSLTISSMEAEDAATYYCQQWSSYPLTFGAGTKLEIK
B7: Tezepelumab (antibody, V domains shown)
VH: QMQLVESGGGVVQPGRSLRLSCAASGFTFRTYGMHWVRQAPGKGLEWVAVIWYDGSNKHYADSVKGRFTITRDNSKNTLNLQMNSLRAEDTAVYYCARAPQWELVHEAFDIWGQGTMVTVSS
VL: SYVLTQPPSVSVAPGQTARITCGGNNLGSKSVHWYQQKPGQAPVLVVYDDSDRPSWIPERFSGSNSGNTATLTISRGEAGDEADYYCQVWDSSSDHVVFGGGTKLTVL
notes: also called AMG 157; MEDI9929
B8: H1A10+L3E8-M1-IgG1m3 (antibody, V domains shown)
VH: B1 VH
VL: B1 VL
notes: IgG1m3 version; also called L3E8人源化突变体(IgG1m3版本)
B9: H1A10+L3E8-M3-IgG1m3 (antibody, V domains shown)
VH: B1 VH
VL: B1 VL with L21I, S22T
notes: as for B8
B10: H1A10+L3E8-M2-IgG1m3 (antibody, V domains shown)
VH: B1 VH
VL: B1 VL with R46K
notes: as for B8
B11: H1A10+L3E8-M4-IgG1m3 (antibody, V domains shown)
VH: B1 VH
VL: B1 VL with L79M, Q80E, S81A
notes: as for B8

Target: T1, mTSLP-mFc
Assay: ELISA on coated mTSLP-mFc (1 μg/mL), HRP anti-human IgG

Row | binding result | Binder
1 | no binding | B1
2 | no binding | B2
3 | no binding | B3
4 | no binding | B4
5 | no binding | B5

Target: T2, hTSLP1-m-mFc
Assay: ELISA on coated hTSLP1-m-mFc (1 μg/mL), HRP anti-human IgG

Row | binding result | Binder
6 | binds | B1
7 | binds | B2
8 | binds | B3
9 | binds | B4
10 | binds | B5

Target: T3, mfTSLP1-m-mFc
Assay: ELISA on coated mfTSLP1-m-mFc (1 μg/mL), HRP anti-human IgG

Row | binding result | Binder
11 | binds | B1
12 | binds | B2
13 | binds | B3
14 | binds | B4
15 | binds | B5

What follows are binders tested against T5, hTSLP1-m-His (human (homo sapiens), UniProt Q969D9 29-159) (assay: SPR (Biacore X100) as in Example 3.1, antibody captured, hTSLP as analyte).
T5 construct: Long version of the human TSLP extracellular region, furin site deleted, His tag at the C-terminus, made in HEK293; also called hTSLP-m-his; not shown: C-terminal His tag

Row | Kd | Binder
16 | 0.012 nM | B6

Target: T4, mfTSLP
Assay: SPR (Biacore X100) as in Example 3.1, antibody captured, mfTSLP as analyte

Row | Kd | Binder
17 | 0.00816 nM | B7
18 | 2.66 nM | B1
19 | 2.59 nM | B3
20 | 2.63 nM | B4
21 | 2.37 nM | B5

These binders were tested against T5, hTSLP1-m-His (assay: competition ELISA on coated hTSLP1-m-his; competitor Tezepelumab-mIgG2a; HRP anti-human IgG).

Row | binding result | Binder
22 | binds | B8
23 | binds | B9
24 | binds | B10
25 | binds | B11

The binders below were run against T5, hTSLP1-m-His (assay: SPR (Biacore X100), antibody captured by anti-human IgG (Fc) on CM5, hTSLP1-m-his as analyte, 25 C, 1:1 fit).

Row | Kd | Binder
26 | 9.2 pM | B6
